Results published in the supplement of paper PMC9112550, “Optimization of the antimicrobial peptide Bac7 by deep mutational scanning” (BMC Biology, 2022).
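Also: peptides expressed intracellularly from a pBAD plasmid library in pooled LB shake-flask culture, induced with 0.3% L-arabinose, DNA abundance read by NGS, three biological replicates, DESeq2 with apeglm shrinkage.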

What follows are sequences tested on Escherichia coli TOP10 (assay: shrunken log2 fold change of peptide-encoding DNA abundance (4.5 h post-induction vs induction); higher = less antimicrobial activity (less host growth inhibition)). Details: time post-induction: 4.5 h; library: site-saturation at positions 5, 18, 19, 20.
With RRIRERPPRLPRPRPRPGWGPRP the “shrunken log2 fold change” value was 0.521.
In the case of RRIRNRPPRLPRPRPRPKTVPRP, the “shrunken log2 fold change” value is reported as 0.0807.
RRIRRRPPRLPRPRPRPPWGPRP was tested, and the “shrunken log2 fold change” value was 0.0337.
With RRIRYRPPRLPRPRPRPPAIPRP the “shrunken log2 fold change” value was -0.319.
With RRIRSRPPRLPRPRPRPFVQPRP the “shrunken log2 fold change” value was -0.496.
With RRIRARPPRLPRPRPRPPCKPRP the “shrunken log2 fold change” value was 0.204.
With RRIRKRPPRLPRPRPRPQQNPRP the “shrunken log2 fold change” value was 0.157.
For RRIRLRPPRLPRPRPRPTKEPRP, the “shrunken log2 fold change” value was -0.0767.
In the case of RRIRDRPPRLPRPRPRPDIDPRP, the “shrunken log2 fold change” value is reported as -0.012.
With RRIRSRPPRLPRPRPRPNCHPRP the “shrunken log2 fold change” value was -0.316.
For RRIRARPPRLPRPRPRPAPGPRP, the “shrunken log2 fold change” value was 0.972.
With RRIRKRPPRLPRPRPRPNHFPRP the “shrunken log2 fold change” value was -2.08.
With RRIRPRPPRLPRPRPRPKRCPRP the “shrunken log2 fold change” value was -0.0846.
RRIRPRPPRLPRPRPRPHAKPRP was tested, and the “shrunken log2 fold change” value was 1.39.
With RRIRVRPPRLPRPRPRPGPMPRP the “shrunken log2 fold change” value was 0.189.
For RRIRQRPPRLPRPRPRPCMCPRP, the “shrunken log2 fold change” value was -0.147.
With RRIRCRPPRLPRPRPRPQDPPRP the “shrunken log2 fold change” value was -0.0952.
With RRIRIRPPRLPRPRPRPRDRPRP the “shrunken log2 fold change” value was -0.0241.
For RRIRIRPPRLPRPRPRPLDKPRP, the “shrunken log2 fold change” value was -0.141.
With RRIRMRPPRLPRPRPRPCGAPRP the “shrunken log2 fold change” value was 1.15.
With RRIRHRPPRLPRPRPRPPPQPRP the “shrunken log2 fold change” value was 0.844.
For RRIRARPPRLPRPRPRPSIIPRP, the “shrunken log2 fold change” value was -0.254.
With RRIRVRPPRLPRPRPRPKNIPRP the “shrunken log2 fold change” value was -0.505.
For RRIRWRPPRLPRPRPRPPWNPRP, the “shrunken log2 fold change” value was 0.279.
For RRIRDRPPRLPRPRPRPVFVPRP, the “shrunken log2 fold change” value was 0.225.
In the case of RRIRERPPRLPRPRPRPQQVPRP, the “shrunken log2 fold change” value is reported as -0.0841.
In the case of RRIRERPPRLPRPRPRPTRCPRP, the “shrunken log2 fold change” value is reported as -0.0341.
RRIRGRPPRLPRPRPRPNHTPRP was tested, and the “shrunken log2 fold change” value was -0.144.
With RRIRKRPPRLPRPRPRPWPFPRP the “shrunken log2 fold change” value was 0.0352.
With RRIRDRPPRLPRPRPRPLFCPRP the “shrunken log2 fold change” value was 0.208.
RRIRPRPPRLPRPRPRPEVIPRP was tested, and the “shrunken log2 fold change” value was 0.0141.
With RRIRKRPPRLPRPRPRPKMFPRP the “shrunken log2 fold change” value was -0.146.
RRIRFRPPRLPRPRPRPCSLPRP was tested, and the “shrunken log2 fold change” value was -0.122.
With RRIRNRPPRLPRPRPRPRKFPRP the “shrunken log2 fold change” value was -0.101.
With RRIRMRPPRLPRPRPRPPNRPRP the “shrunken log2 fold change” value was 1.08.
RRIRQRPPRLPRPRPRPEVMPRP was tested, and the “shrunken log2 fold change” value was 0.0824.
For RRIRHRPPRLPRPRPRPNHQPRP, the “shrunken log2 fold change” value was -1.24.
RRIRRRPPRLPRPRPRPFPFPRP was tested, and the “shrunken log2 fold change” value was -0.0334.
RRIRVRPPRLPRPRPRPWCIPRP was tested, and the “shrunken log2 fold change” value was -0.165.
In the case of RRIRFRPPRLPRPRPRPLWWPRP, the “shrunken log2 fold change” value is reported as 0.172.
In the case of RRIRYRPPRLPRPRPRPGWLPRP, the “shrunken log2 fold change” value is reported as 0.0173.
RRIRERPPRLPRPRPRPHLNPRP was tested, and the “shrunken log2 fold change” value was -0.434.
For RRIRCRPPRLPRPRPRPCNKPRP, the “shrunken log2 fold change” value was -0.671.
RRIRCRPPRLPRPRPRPWSLPRP was tested, and the “shrunken log2 fold change” value was -1.5.
RRIRDRPPRLPRPRPRPHALPRP was tested, and the “shrunken log2 fold change” value was -0.225.
For RRIRKRPPRLPRPRPRPCQTPRP, the “shrunken log2 fold change” value was 0.233.
For RRIRDRPPRLPRPRPRPTQIPRP, the “shrunken log2 fold change” value was 0.114.
For RRIRTRPPRLPRPRPRPDWGPRP, the “shrunken log2 fold change” value was 0.194.
With RRIRRRPPRLPRPRPRPLSAPRP the “shrunken log2 fold change” value was 0.444.
RRIRIRPPRLPRPRPRPHCEPRP was tested, and the “shrunken log2 fold change” value was -1.54.
For RRIRGRPPRLPRPRPRPIRSPRP, the “shrunken log2 fold change” value was -0.0333.
With RRIRWRPPRLPRPRPRPFFYPRP the “shrunken log2 fold change” value was 0.0746.
In the case of RRIRYRPPRLPRPRPRPRTAPRP, the “shrunken log2 fold change” value is reported as -0.0512.
RRIRQRPPRLPRPRPRPEPWPRP was tested, and the “shrunken log2 fold change” value was 0.153.
For RRIRPRPPRLPRPRPRPAEEPRP, the “shrunken log2 fold change” value was 0.2.
In the case of RRIRARPPRLPRPRPRPRICPRP, the “shrunken log2 fold change” value is reported as 0.29.
RRIRRRPPRLPRPRPRPAFHPRP was tested, and the “shrunken log2 fold change” value was 0.083.
In the case of RRIRARPPRLPRPRPRPDCSPRP, the “shrunken log2 fold change” value is reported as 0.958.
In the case of RRIRVRPPRLPRPRPRPGKTPRP, the “shrunken log2 fold change” value is reported as 0.0999.
For RRIRWRPPRLPRPRPRPHDTPRP, the “shrunken log2 fold change” value was 0.0511.
For RRIRRRPPRLPRPRPRPKENPRP, the “shrunken log2 fold change” value was 0.325.
For RRIRDRPPRLPRPRPRPIFSPRP, the “shrunken log2 fold change” value was -0.182.
With RRIRLRPPRLPRPRPRPTGLPRP the “shrunken log2 fold change” value was 0.177.
RRIRTRPPRLPRPRPRPHKCPRP was tested, and the “shrunken log2 fold change” value was 0.215.
RRIRARPPRLPRPRPRPPGIPRP was tested, and the “shrunken log2 fold change” value was 0.331.
With RRIRARPPRLPRPRPRPAMMPRP the “shrunken log2 fold change” value was 0.511.
In the case of RRIRSRPPRLPRPRPRPFNKPRP, the “shrunken log2 fold change” value is reported as -0.81.
For RRIRYRPPRLPRPRPRPYCTPRP, the “shrunken log2 fold change” value was -1.54.
With RRIRCRPPRLPRPRPRPSFEPRP the “shrunken log2 fold change” value was -0.508.
With RRIRSRPPRLPRPRPRPFHPPRP the “shrunken log2 fold change” value was 0.0938.
With RRIRWRPPRLPRPRPRPIKCPRP the “shrunken log2 fold change” value was -0.0271.
For RRIRKRPPRLPRPRPRPTPPPRP, the “shrunken log2 fold change” value was 1.25.
In the case of RRIRKRPPRLPRPRPRPFWAPRP, the “shrunken log2 fold change” value is reported as 0.659.
RRIRGRPPRLPRPRPRPDSMPRP was tested, and the “shrunken log2 fold change” value was 0.245.
For RRIRNRPPRLPRPRPRPSLKPRP, the “shrunken log2 fold change” value was -0.47.
